Experimental data published in article PMC7287642, “SPR Biosensor Based on Polymer Multi-Mode Optical Waveguide and Nanoparticle Signal Enhancement”.

Target: T1, C-reactive protein (CRP) (human, UniProt P02741 19-224)
T1 sequence: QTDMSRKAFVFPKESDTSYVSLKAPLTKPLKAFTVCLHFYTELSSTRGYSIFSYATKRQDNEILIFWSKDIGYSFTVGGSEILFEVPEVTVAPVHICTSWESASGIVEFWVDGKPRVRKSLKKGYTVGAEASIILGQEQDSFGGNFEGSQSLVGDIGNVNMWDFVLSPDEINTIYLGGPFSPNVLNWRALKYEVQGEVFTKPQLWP
Assay: SPR (AuNP-enhanced aptamer sandwich); Apt1 on sensor and on 17 nm AuNPs; 2 mM Ca2+, 10 mM Mg2+; response 0.118 nm/nM; no shift detected with CRP alone before AuNPs; 10 mM Tris, 50 mM NaCl, 2 mM CaCl2, 10 mM MgCl2, 5 mM KCl, pH 7.5; CRP 30 min, AuNPs 10 min; readout in H2O; binding temperature not stated
Settings: protein: native; chain copies: 5

B1: Apt1 (anti-CRP aptamer) (ssDNA)
DNA: GGCAGGAAGACAAACACGATGGGGGGGTATGATTTGATGTGGTTGTTGCATGATCGTGGTTGTGGTGCTGT
modifications: 5'-biotin
  binding result: binds
